The text below walks through data of article PMC3961393, “Progranulin-Derived Atsttrin Directly Binds to TNFRSF25 (DR3) and Inhibits TNF-Like Ligand 1A (TL1A) Activity” (PLoS ONE, 2014).

Test [1] concerns the target T1, Recombinant protein hTL1A (human, UniProt O95150 72-251).
T1 construct: human TL1A, recombinant; also called TNF-Like Ligand 1A; source: bought: R&D system (Cat# 1319-TL-010)
T1 sequence (looked up): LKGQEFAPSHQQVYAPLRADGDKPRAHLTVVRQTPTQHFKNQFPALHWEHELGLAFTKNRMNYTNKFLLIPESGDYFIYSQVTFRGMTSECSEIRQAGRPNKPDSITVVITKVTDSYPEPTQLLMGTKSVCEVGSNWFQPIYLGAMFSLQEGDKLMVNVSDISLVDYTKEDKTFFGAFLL
In words: ELISA; solid phase inhibition assay: 100 ng of TNFa or TL1A coated overnight, 100 ng of TNFR2 or DR3 added together with various dose of Atsttrin, bound receptor detected by anti-TNFR2 or anti-DR3 antibody and HRP secondary antibody. Conditions: both partners purified.

In another test the target is T2, Recombinant hPGRN (human, UniProt P28799 18-593).
T2 construct: human progranulin, recombinant; also called Progranulin; source: bought: Adipogen (Cat. No. AG-40A-0188)
T2 sequence (looked up): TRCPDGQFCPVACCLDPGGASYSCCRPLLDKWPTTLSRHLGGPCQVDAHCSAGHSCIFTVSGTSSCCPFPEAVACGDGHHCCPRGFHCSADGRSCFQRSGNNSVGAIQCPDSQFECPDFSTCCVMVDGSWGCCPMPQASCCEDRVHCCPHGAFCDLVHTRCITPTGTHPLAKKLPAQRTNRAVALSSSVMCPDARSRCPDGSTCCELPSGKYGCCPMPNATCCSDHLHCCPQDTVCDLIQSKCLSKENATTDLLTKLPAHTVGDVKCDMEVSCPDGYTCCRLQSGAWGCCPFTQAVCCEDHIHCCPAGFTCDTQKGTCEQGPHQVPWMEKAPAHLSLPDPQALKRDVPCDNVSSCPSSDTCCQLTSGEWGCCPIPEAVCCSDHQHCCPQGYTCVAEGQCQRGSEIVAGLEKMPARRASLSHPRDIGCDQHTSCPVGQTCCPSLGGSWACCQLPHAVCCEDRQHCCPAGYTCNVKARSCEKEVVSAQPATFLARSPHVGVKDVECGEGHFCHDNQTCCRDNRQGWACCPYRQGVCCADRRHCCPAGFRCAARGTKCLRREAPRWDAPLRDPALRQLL
Kind of test: ELISA; solid phase binding assay: various dose of Atsttrin or progranulin coated on the plate overnight, biotinylated TNFR2, DR3 or BSA added, detected with avidin-HRP, OD 450 nm. The note with it: both partners purified. A general note: ELISA stands for enzyme-linked immunosorbent assay.

B1: recombinant extracellular portion of hDR3 (domain or fragment, human, UniProt Q93038 25-199, looked up)
chain: QGGTRSPRCDCAGDFHKKIGLFCCRGCPAGHYLKAPCTEPCGNSTCLVCPQDTFLAWENHHNSECARCQACDEQASQVALENCSAVADTRCGCKPGWFVECQVSQCVSSSPFYCQPCLDCGALHRHTRLLCSRRDTDCGTCLPGFYEHGDGCVSCPTSTLGSCPERCAAVCGWRQ
modifications: biotinylated (site not stated) in the direct solid phase binding assay; biotin is not mentioned for the inhibition assay
notes: human DR3 (TNFRSF25), recombinant extracellular portion; As I recall, this catalogue item is an Fc chimera; also called DR3 extracellular portion; TNFRSF25; source: bought: R&D system (Cat# 943-D3-050)
Turning to B1, the binding result (in test [1]; in the test with Recombinant hPGRN) was “binds” throughout.
